Substrate in data set [1]: C/C=C/C(=O)C1=C(OC)OC(C)(/C=C/C=C/C(C)O)C1=O
In words: Activity of mouse DNA polymerase iota using dTTP substrate at 15 uM by Lineweaver-Burke plot.

Substrate in data set [2]: C/C=C/C(=O)C1=C(OC)OC(C)(/C=C/C=C/C(C)O)C1=O
In words: Activity of mouse DNA polymerase iota using poly(dA/oligo(dT) substrate at 5 uM by Lineweaver-Burke plot.

Substrate in data set [3]: C/C=C/C(=O)C1=C(OC)OC(C)(/C=C/C=C/C(C)O)C1=O
In words: Activity of mouse DNA polymerase iota using poly(dA/oligo(dT) substrate at 10 uM by Lineweaver-Burke plot.

Substrate in data set [4]: C/C=C/C(=O)C1=C(OC)OC(C)(/C=C/C=C/C(C)O)C1=O
Nature of the data set: Activity of mouse DNA polymerase iota using poly(dA/oligo(dT) substrate at 15 uM by Lineweaver-Burke plot.

Substrate in data set [5]: C/C=C/C(=O)C1=C(OC)OC(C)(/C=C/C=C/C(C)O)C1=O
Nature of the data set: Activity of mouse DNA polymerase iota using dTTP substrate at 10 uM by Lineweaver-Burke plot.

Substrate in data set [6]: C/C=C/C(=O)C1=C(OC)OC(C)(/C=C/C=C/C(C)O)C1=O
In words: Activity of mouse DNA polymerase iota using dTTP substrate at 5 uM by Lineweaver-Burke plot.

The term Vmax denotes the rate approached at saturating substrate.

B1: DNA polymerase iota (Mus musculus), Q6R3M4 (protein)
chain: MEPLHAGAAGSSRAVCSQGPPTQISSSRVIVHVDLDCFYAQVEMISNPELKDRPLGVQQKYLVVTCNYEARKLGVRKLMNVRDAKEKCPQLVLVNGEDLSRYREMSYKVTELLEEFSPAVERLGFDENFVDLTEMVEKRLQQLPSEEVPSVTVFGHVYNNQSVNLHNIMHRRLVVGSQIAAEMREAMYNQLGLTGCAGVAPNKLLAKLVSGVFKPNQQTVLLPESCQHLIHSLNHIKEIPGIGYKTAKRLEVLGINSVHDLQTFPIKTLEKELGIAIAQRIQQLSFGEDKSPVTPSGPPQSFSEEDTFKKCSSEVEAKAKIEELLSSLLTRVCQDGRKPHTVRLVIRRYSDKHCNRESRQCPIPSHVIQKLGTGNHDSMPPLIDILMKLFRNMVNVKMPFHLTLMSVCFCNLKALSSAKKGPMDCYLTSLSTPAYTDKRAFKVKDTHTEDSHKEKEANWDCLPSRRIESTGTGESPLDATCFPKEKDTSDLPLQALPEGVDQEVFKQLPADIQEEILYGKSRENLKGKGSLSCPLHASRGVLSFFSTKQMQASRLSPRDTALPSKRVSAASPCEPGTSGLSPGSTSHPSCGKDCSYYIDSQLKDEQTSQGPTESQGCQFSSTNPAVSGFHSFPNLQTEQLFSTHRTVDSHKQTATASHQGLESHQGLESRELDSAEEKLPFPPDIDPQVFYELPEEVQKELMAEWERAGAARPSAHR
For the protein B1, the Vmax was found to be 22.5 pmol/h in data set [1]; 31.1 pmol/h in data set [2]; 20 pmol/h in data set [3]; 14.8 pmol/h in data set [4]; 27.6 pmol/h in data set [5]; 35.7 pmol/h in data set [6].

(Values after ChEMBL document CHEMBL1152764, “Penicilliols A and B, novel inhibitors specific to mammalian Y-family DNA polymerases” (Bioorg Med Chem, 2009).)
